Experimental data as given in US20220056094A1 (JIANGSU HENGRUI MEDICINE, published 2022).
Residue numbers refer to the chain shown, from its start. In names and notes the source's numbering stands. Values belong to the binder of their own block, whether it stands above or below them.

Columns and labels:
[1] = molecular target: T1, IL-2 receptor IL-2Rα/β/γ on human peripheral blood Treg cells (human, UniProt P01589 22-272; P14784 27-551; P31785 23-369); assay: cell-based or functional assay
T1 sequence (looked up) 1: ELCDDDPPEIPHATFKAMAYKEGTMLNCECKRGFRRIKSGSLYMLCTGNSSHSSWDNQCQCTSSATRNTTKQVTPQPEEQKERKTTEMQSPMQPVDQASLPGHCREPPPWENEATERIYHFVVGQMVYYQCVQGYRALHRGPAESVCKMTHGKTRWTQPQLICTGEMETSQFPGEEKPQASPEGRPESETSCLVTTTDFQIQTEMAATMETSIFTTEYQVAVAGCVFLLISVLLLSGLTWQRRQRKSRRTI
T1 sequence (looked up) 2: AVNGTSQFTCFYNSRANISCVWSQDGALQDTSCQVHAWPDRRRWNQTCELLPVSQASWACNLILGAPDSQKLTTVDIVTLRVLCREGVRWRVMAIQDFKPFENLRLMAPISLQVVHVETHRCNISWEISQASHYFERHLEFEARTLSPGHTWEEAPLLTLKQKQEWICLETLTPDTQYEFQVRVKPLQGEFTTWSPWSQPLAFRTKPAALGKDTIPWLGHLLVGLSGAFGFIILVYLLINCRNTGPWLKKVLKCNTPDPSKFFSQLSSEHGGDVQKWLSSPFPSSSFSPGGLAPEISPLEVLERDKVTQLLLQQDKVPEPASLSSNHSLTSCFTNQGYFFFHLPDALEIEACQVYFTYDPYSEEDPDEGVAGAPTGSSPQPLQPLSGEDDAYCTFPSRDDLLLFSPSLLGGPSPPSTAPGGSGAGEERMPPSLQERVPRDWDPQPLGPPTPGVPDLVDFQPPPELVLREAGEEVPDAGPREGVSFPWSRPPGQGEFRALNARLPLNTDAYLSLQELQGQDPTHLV
T1 sequence (looked up) 3: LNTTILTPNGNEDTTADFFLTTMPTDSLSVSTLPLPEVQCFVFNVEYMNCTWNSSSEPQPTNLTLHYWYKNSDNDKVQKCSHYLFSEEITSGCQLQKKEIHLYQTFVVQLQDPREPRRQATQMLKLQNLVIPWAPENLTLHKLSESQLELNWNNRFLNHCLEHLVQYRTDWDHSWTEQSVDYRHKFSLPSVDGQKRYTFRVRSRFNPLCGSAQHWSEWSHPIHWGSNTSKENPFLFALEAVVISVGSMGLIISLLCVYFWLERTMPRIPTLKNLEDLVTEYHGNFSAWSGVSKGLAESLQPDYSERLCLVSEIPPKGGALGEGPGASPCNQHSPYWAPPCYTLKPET

[2] = molecular target: T2, his-tagged human IL-2Rα recombinant protein (SinoBiological, Cat #10165-H08H) (human, UniProt P01589 22-213); assay: BLI (Octet RED96e), His-tagged IL-2Rα on HIS1K sensor; column printed as 'affinity (nM)'
T2 construct: Bought protein; also called IL-2Rα (His Tag)
T2 sequence: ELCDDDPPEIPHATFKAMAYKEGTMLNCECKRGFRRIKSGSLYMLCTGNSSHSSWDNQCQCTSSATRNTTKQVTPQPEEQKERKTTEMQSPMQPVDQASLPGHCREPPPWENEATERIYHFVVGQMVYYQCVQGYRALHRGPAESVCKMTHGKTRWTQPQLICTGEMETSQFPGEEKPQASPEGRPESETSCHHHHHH

[3] = molecular target: T2, his-tagged human IL-2Rα recombinant …; assay: BLI (Octet RED96e), His-tagged IL-2Rα on HIS1K sensor
Experimental: The HIS1K biosensor (Fortebio, 18-5120) was immersed into 200 μL buffer (PBS, pH 7.4, 0.02% tween-20, 0.1% BSA) for 10 minutes, for wetting treatment. Then, human IL-2Rα with His tag (SinoBiological, Cat #10165-H08H) was dissolved in PBS pH 7.4, 0.02% tween-20 and 0.1% BSA, and the sensor was placed in 200 μL of such solution. The sensor was placed in 200 μL buffer (PBS pH 7.4, 0.02% tween-20, 0.1% BSA) to wash off the excess IL-2Rα.

[4] = molecular target: T3, medium-affinity receptor IL-2Rβ/γ on human cells (Mo7e cell line; human CD8+T and NK cells) (human, UniProt P14784 27-551; P31785 23-369); assay: cell-based or functional assay
T3 sequence (looked up) 1: T1 sequence (looked up) 2
T3 sequence (looked up) 2: T1 sequence (looked up) 3

[5] = molecular target: T4, IL-2Rβ/γ-Fc heterodimer (IL-2Rβ-Fc-hole with IL-2Rγ-Fc-knob); assay: SPR (Biacore), IL-2Rβ/γ-Fc captured on Protein A chip
T4 construct: Co-expressed in HEK293 cells and purified with Protein A and Superdex 200
Experimental: The Protein A sensor chip (GE, Cat #29127556) of the Biacore instrument (Biacore T200, GE) was used to capture IL-2Rβ/γ-Fc, wherein IL-2Rβ/γ-Fc was diluted with 1×HBS-EP to 1 μg/mL, and flowed at a flow rate of 10 μL/min for 30 seconds. […] The Biacore instrument (Biacore X100, GE) was used to detect the reaction in real time, to obtain association and dissociation curves. After each cycle of dissociation was completed, the chip was washed and regenerated with 10 mM Gly-HCl pH 1.5.

[6] = molecular target: T3, medium-affinity receptor IL-2Rβ/γ on …; assay: cell-based or functional assay; remark: listed apart in the source
[7] = molecular target: T5, high-affinity receptor IL-2Rα/β/γ on CTLL2 cells (mouse-derived cell line) (mouse, UniProt P01590 22-268; P16297 27-539; P34902 23-369); assay: cell-based or functional assay
T5 sequence (looked up) 1: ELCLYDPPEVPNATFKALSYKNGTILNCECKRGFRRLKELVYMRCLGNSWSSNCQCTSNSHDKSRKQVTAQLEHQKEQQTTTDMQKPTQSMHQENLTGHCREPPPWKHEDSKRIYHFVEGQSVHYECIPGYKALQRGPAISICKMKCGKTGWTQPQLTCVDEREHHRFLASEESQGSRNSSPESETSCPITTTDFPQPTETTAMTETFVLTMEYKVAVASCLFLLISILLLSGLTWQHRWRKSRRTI
T5 sequence (looked up) 2: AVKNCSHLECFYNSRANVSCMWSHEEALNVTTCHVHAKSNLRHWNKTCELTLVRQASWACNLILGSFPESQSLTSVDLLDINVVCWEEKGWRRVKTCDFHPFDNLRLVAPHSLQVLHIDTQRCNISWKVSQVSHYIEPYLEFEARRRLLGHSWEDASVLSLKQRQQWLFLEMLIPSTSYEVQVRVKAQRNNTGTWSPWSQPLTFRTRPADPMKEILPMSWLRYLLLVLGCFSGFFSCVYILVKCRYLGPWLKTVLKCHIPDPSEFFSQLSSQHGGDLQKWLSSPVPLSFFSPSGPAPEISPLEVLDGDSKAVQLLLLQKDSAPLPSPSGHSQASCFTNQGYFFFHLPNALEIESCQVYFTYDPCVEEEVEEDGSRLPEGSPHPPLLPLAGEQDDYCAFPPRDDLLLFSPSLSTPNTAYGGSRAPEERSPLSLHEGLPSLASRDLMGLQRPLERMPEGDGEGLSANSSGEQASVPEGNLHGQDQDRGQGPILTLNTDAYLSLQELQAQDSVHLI
T5 sequence (looked up) 3: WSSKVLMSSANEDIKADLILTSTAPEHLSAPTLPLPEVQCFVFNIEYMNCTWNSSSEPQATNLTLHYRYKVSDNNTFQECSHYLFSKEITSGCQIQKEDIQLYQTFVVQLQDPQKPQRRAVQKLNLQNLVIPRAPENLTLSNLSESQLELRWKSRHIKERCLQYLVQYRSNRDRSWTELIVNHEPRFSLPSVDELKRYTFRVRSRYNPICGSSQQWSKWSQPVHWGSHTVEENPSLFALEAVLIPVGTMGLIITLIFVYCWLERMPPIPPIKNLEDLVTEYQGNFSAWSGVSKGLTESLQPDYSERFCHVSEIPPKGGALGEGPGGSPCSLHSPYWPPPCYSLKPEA

[8] = molecular target: T3, medium-affinity receptor IL-2Rβ/γ on …; assay: cell-based or functional assay; remark: listed apart in the source

B1: IL-2-24 (N26Q/N29S/N88R) (ligand)
chain: MAPTSSSTKKTQLQLEHLLLDLQMILQGISNYKNPKLTRMLTFKFYMPKKATELKHLQCLEEELKPLEEVLNLAQSKNFHLRPRDLISRINVIVLELKGSETTFMCEYADETATIVEFLNRWITFAQSIISTLT
EC50 (STAT5 phosphorylation in human Treg cells) [1]: 0.209 nM
relative biological activity (STAT5 phosphorylation in human Treg cells) [1]: 0.2%
Kd [2]: 11.8 nM

B2: PEGylated IL-2-10 (ligand)
chain: B1 chain with S30N, N31S, F43A, L73G, R89N
modifications: mono-PEGylated with 20 kDa mPEG-butyraldehyde (sodium cyanoborohydride); site not stated
notes: also called PEG-IL-2-10
binding result [3]: no binding (tested: 133.3 nM)
EC50 (STAT5 phosphorylation in human Treg cells) [1]: 2.65 nM
relative biological activity (STAT5 phosphorylation in human Treg cells) [1]: 0.02%
EC50 (STAT5 phosphorylation in human NK cells) [4]: 2 nM
relative activity (STAT5 phosphorylation in human NK cells) [4]: 24%
Kd [5]: 0.86 nM
koff [5]: 0.00119 s⁻¹
kon [5]: 1.38e+06 M⁻¹ s⁻¹
EC50 (Mo7e cell proliferation) [6]: 13.2 nM
relative biological activity (Mo7e cell proliferation) [6]: 19%
EC50 (CTLL2 cell proliferation) [7]: 35.3 nM
relative biological activity (CTLL2 cell proliferation) [7]: 0.2%
EC50 (STAT5 phosphorylation in human CD8+T cells) [8]: 8.97 nM
relative activity (STAT5 phosphorylation in human CD8+T cells) [8]: 26%

Second part, the binder after the results:

binding result [3]: no binding (tested: 133.3 nM)
Kd [5]: 3.54 nM
koff [5]: 0.000549 s⁻¹
kon [5]: 155000 M⁻¹ s⁻¹
EC50 (Mo7e cell proliferation) [6]: 34.8 nM
relative biological activity (Mo7e cell proliferation) [6]: 7%
EC50 (CTLL2 cell proliferation) [7]: 39.2 nM
relative biological activity (CTLL2 cell proliferation) [7]: 0.1%
B3: PEGylated IL-2-22 (ligand)
chain: B1 chain with F43A, N72Q, L73G, R89N
modifications: mono-PEGylated with 20 kDa mPEG-butyraldehyde (sodium cyanoborohydride); site not stated
notes: also called PEG-IL-2-22

binding result [3]: no binding (tested: 133.3 nM)
EC50 (STAT5 phosphorylation in human Treg cells) [1]: 4.24 nM
relative biological activity (STAT5 phosphorylation in human Treg cells) [1]: 0.01%
EC50 (STAT5 phosphorylation in human NK cells) [4]: 2.88 nM
relative activity (STAT5 phosphorylation in human NK cells) [4]: 17%
Kd [5]: 1.86 nM
koff [5]: 0.000649 s⁻¹
kon [5]: 350000 M⁻¹ s⁻¹
EC50 (Mo7e cell proliferation) [6]: 23.4 nM
relative biological activity (Mo7e cell proliferation) [6]: 10%
EC50 (STAT5 phosphorylation in human CD8+T cells) [8]: 14.4 nM
relative activity (STAT5 phosphorylation in human CD8+T cells) [8]: 16%
B4: PEGylated IL-2-23 (ligand)
chain: MAPTSSSTKKTCLQLEHLLLDLQMILNGIQSMHIDATLYMPKKATELKHLQCLEEELKPLEEVLNLAQSKNFHLRPRDLISNINVIVLELKGSETTFMCEYADETATIVEFLNRWITFAQSIISTCT
modifications: mono-PEGylated with 20 kDa mPEG-butyraldehyde (sodium cyanoborohydride); site not stated
notes: also called PEG-IL-2-23
